The text below walks through data of patent publication US7018836.

Series [1] addresses human P-TEFb from HeLa extract, detected through its kinase subunit PITALRE (human). In words: cell-based or functional assay.
The target in series [2] is GST-Tat 1 86R (UniProt P04608).

human P-TEFb from HeLa extract, detected through its kinase subunit PITALRE (human), sequence (P50750 whole entry): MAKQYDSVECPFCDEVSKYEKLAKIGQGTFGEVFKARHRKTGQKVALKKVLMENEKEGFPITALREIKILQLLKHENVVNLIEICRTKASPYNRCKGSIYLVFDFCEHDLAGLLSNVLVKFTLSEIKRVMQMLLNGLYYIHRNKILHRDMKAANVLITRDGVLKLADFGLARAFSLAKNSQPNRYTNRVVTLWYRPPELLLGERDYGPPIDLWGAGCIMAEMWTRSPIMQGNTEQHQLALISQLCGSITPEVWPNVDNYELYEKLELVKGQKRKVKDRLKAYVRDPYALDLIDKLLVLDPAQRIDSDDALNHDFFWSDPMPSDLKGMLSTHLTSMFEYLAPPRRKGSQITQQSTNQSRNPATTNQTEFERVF
GST-Tat 1 48Δ, sequence (P08515 1-218, tags or fused parts left off): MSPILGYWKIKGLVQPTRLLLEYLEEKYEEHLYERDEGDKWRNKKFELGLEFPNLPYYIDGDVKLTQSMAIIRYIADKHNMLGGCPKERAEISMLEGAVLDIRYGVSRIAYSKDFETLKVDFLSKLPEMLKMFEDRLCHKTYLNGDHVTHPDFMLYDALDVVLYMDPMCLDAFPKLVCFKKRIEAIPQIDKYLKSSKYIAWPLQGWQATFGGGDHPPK

Substance “86 residue HIV-1 Tat followed by a streptavidin binding tag at its carboxyl terminus (from UniProt P04608 1-86)” registered a runoff transcription from the HIV-1 LTR TAR template in HNE, continuous labeling in series [1] of 12 fold. In series [1], “GST-Tat 1 48Δ (from UniProt P08515 1-218; P04608 1-48)” displayed a TAK activity (assayed by GST-Tat48A pull-down) after depletion of human P-TEFb from HNE by antibodies to PITALRE of less than 2%. With “human P-TEFb from HeLa extract, detected through its kinase subunit PITALRE”, in series [2], the “phosphorylation of the CTD of RNA polymerase II” value is reported as “The GST-Tat 1 86R/P-TEFb protein complex can phosphorylate the CTD of RNA polymerase II”.
